Assay results: FireProtDB (doi:10.1021/bi00146a008)

Settings: Homo sapiens, pH 2.8, Thermal, DSC, glycine-HCl 50 mM, reversible: yes, whole UniProt chain shown

B1: Lysozyme C wild type, P61626 (protein)
chain: MKALIVLGLVLLSVTVQGKVFERCELARTLKRLGMDGYRGISLANWMCLAKWESGYNTRATNYNAGDRSTDYGIFQINSRYWCNDGKTPGAVNACHLSCSALLQDNIADAVACAKRVVRDPQGIRAWVAWRNRCQNRDVRQYVQGCGV
heat capacity change of unfolding (68.8 °C): 1.58 kcal/mol/K | unfolding enthalpy (calorimetric) (68.8 °C): 120 kcal/mol | Tm: 68.8 °C | heat capacity change of unfolding: 1.58 kcal/mol/K
